Laboratory results: doi:10.1101/2025.11.29.691178 (bioRxiv, 2025)

T1: human biliverdin reductase B (BLVRB), recombinant, full length (human, UniProt P30043 1-206)
T1 sequence: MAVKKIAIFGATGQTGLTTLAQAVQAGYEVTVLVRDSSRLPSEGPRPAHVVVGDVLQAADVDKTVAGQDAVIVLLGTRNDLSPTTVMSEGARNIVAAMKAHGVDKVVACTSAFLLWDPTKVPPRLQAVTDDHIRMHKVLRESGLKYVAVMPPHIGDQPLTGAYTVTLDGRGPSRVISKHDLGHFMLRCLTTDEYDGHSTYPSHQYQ

T2: Band 3 (SLC4A1), endogenous in human red blood cells (human (endogenous in RBCs), UniProt P02730 1-911)
T2 sequence: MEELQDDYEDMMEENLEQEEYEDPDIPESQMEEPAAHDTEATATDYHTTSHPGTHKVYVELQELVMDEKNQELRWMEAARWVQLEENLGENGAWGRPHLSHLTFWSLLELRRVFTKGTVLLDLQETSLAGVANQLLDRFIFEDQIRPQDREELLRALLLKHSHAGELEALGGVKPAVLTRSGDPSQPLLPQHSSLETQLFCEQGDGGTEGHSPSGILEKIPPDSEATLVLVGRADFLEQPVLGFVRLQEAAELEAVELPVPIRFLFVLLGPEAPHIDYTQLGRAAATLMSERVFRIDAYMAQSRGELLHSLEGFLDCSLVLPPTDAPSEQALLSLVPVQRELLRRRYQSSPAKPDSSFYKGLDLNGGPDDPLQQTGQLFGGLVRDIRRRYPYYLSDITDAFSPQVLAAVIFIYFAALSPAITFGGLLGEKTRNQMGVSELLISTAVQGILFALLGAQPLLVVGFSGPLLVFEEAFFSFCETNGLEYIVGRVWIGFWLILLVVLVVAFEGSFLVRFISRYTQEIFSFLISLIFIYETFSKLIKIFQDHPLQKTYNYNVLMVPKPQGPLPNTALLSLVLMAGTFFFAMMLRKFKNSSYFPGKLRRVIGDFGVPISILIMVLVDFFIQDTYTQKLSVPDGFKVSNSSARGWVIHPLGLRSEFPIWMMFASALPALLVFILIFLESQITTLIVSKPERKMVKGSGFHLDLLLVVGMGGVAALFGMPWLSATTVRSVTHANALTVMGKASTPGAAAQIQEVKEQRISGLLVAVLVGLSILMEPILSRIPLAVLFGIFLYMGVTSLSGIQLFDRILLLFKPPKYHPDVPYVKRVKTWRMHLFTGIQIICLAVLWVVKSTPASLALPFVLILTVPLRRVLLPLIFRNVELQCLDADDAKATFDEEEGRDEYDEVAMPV


How the values were obtained:
[1] = target: T1, human biliverdin reductase B (BLVRB), …; test: NMR titration
[2] = target: T2, Band 3 (SLC4A1), endogenous in human …; test: cross-linking

| Binder | binding result [1] | fold change of cross-links, hypoxia against normoxia [2] |
| --- | --- | --- |
| Band 3 (SLC4A1) N-terminal residues 1-56, recombinant (domain or fragment) MEELQDDYEDMMEENLEQEEYEDPDIPESQMEEPAAHDTEATATDYHTTSHPGTHK | binds | – |
| MEELQDDYEDMMEENLEQEEYEDPDIPESQ (domain or fragment) [Band 3 (SLC4A1) N-terminal residues 1-30, recombinant] | binds | – |
| hemoglobin (deoxyhemoglobin tetramer), endogenous in human red blood cells (complex) chain 1: not shown chain 2: not shown | – | 3 fold |
